This is an account of results in patent publication US20220348664A1.

In test [1] the target is cynomolgus PD-L1 ECD with His tag (W315-cynoPro1.ECD.His) (cynomolgus) (UniProt G7PSE7). The test can be described thus: ELISA, plate coated with cynomolgus PD-L1 ECD-His, HRP anti-human IgG detection.
Test [2] has as its target mouse PD-L1 ECD with mouse Fc tag (W315-mPro1.ECD.mFc) (mouse) (UniProt Q9EP73). In words: ELISA, plate coated with mouse PD-L1 ECD-mFc, HRP anti-human IgG detection.
The target in test [3] is human PD-L1 ECD with mouse Fc tag (W315-hPro1.ECD.mFc) (human) (UniProt Q9NZQ7). In words: ELISA, plate coated with human PD-L1 ECD-mFc, HRP anti-human IgG detection.
Chain of human PD-L1 ECD with mouse Fc tag (W315-hPro1.ECD.mFc) (human) (Q9NZQ7 19-238): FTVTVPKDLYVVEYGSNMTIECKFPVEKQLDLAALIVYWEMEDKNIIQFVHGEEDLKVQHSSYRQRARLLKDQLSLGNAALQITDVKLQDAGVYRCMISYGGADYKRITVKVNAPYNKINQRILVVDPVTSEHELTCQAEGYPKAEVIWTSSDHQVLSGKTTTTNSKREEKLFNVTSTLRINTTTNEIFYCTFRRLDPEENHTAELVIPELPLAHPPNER
The target of test [4] is human PD-L1 protein (SPR analyte) (human) (UniProt Q9NZQ7). In words: SPR (Biacore 8K), antibody captured on anti-human IgG Fc chip, antigen as analyte, 1:1 fit.
Chain of human PD-L1 protein (SPR analyte) (human) (Q9NZQ7 19-238 limits assumed): as the sequence (Q9NZQ7 19-238) above
Test [5] deals with cyno PD-L1 protein (SPR analyte) (cynomolgus) (UniProt G7PSE7). The test is described as above.
Chain of cyno PD-L1 protein (SPR analyte) (cynomolgus) (G7PSE7 entry or part of it): as the sequence (Q9NZQ7 19-238) above, with A33T, A34S, S62N, R68Q, Q82R, F173L, T185A, T192I, H215L counted along it
Test [6] deals with mouse PD-L1 protein (SPR analyte) (mouse) (UniProt Q9EP73). Described as above.
Chain of mouse PD-L1 protein (SPR analyte) (mouse) (Q9EP73 19-239 limits assumed): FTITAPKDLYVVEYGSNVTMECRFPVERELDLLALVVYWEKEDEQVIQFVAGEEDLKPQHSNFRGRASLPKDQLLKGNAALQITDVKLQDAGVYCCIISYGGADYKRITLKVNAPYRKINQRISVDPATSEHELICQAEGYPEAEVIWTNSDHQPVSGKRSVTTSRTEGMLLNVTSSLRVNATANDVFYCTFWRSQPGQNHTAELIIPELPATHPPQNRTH
Test [7] deals with human PD-L1, full length, on CHO-K1 cells (W315-CHO-K1.hPro1.C11) (human) (UniProt Q9NZQ7). The test can be described thus: FACS on human PD-L1-expressing CHO-K1 cells, PE anti-human IgG detection.
Chain of human PD-L1, full length, on CHO-K1 cells (W315-CHO-K1.hPro1.C11) (human) (Q9NZQ7 19-290): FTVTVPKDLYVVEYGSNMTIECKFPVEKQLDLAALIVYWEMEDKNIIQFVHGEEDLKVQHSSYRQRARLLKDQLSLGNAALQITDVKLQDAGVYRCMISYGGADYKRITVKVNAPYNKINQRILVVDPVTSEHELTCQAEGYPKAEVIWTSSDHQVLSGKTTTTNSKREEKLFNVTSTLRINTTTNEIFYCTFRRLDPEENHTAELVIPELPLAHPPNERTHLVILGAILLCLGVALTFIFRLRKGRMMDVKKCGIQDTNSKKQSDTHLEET
Test [8] deals with human LAG-3 ECD with mouse Fc tag (W339-hPro1.ECD.mFc) (human) (UniProt P18627). The test can be described thus: FACS competition: antibody pre-incubated with mFc-tagged LAG-3, binding of LAG-3 to MHC-II on Raji cells detected with anti-mouse IgG Fc-PE; Top is the upper plateau of the LAG-3 signal.
Chain of human LAG-3 ECD with mouse Fc tag (W339-hPro1.ECD.mFc) (human) (P18627 23-450): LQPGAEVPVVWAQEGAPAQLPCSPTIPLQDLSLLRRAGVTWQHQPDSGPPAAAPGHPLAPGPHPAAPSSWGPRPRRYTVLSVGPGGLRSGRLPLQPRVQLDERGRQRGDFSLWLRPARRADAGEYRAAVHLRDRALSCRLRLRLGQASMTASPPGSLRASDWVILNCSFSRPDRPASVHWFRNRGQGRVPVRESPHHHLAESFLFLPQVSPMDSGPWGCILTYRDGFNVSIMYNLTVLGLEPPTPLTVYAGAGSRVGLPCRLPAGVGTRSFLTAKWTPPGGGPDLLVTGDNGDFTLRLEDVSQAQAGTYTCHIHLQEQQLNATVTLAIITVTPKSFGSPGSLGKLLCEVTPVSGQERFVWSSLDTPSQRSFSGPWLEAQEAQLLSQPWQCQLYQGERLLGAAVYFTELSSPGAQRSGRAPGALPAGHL
Test [9] concerns the target human LAG-3, full length, on cells (W339-FlpIn293.hPro1.A3) (human) (UniProt P18627). In words: FACS on human LAG-3-expressing 293 cells, PE anti-human IgG detection.
In test [10] the target is cynomolgus LAG-3 protein (Sino-90841-C08H) (cynomolgus). The test can be described thus: ELISA, cynomolgus LAG-3-His captured by coated anti-His, HRP anti-human IgG detection.
Test [11] has as its target human LAG-3 ECD with mouse Fc tag (W339-hPro1.ECD.mFc) (human) (UniProt P18627). In words: ELISA competition, blocking of mouse Fc-tagged LAG-3 binding to coated human FGL-1 (competitor FGL-1).
The target is the same in test [12]. The test can be described thus: FACS competition, blocking of mFc-tagged LAG-3 binding to MHC-II on Raji cells (competitor MHC-II).
Test [13] addresses human LAG-3 protein (SPR analyte) (human) (UniProt P18627). In words: SPR (Biacore 8K), antibody captured on anti-human IgG Fc chip, antigen as analyte, 1:1 fit.
Test [14] deals with human LAG-3 ECD with mouse Fc tag (W339-hPro1.ECD.mFc) (human) (UniProt P18627). In words: ELISA, human LAG-3 ECD-mFc captured by coated goat anti-mouse F(ab)2, HRP anti-human IgG detection.

Chain of human LAG-3 protein (SPR analyte) (human) (P18627 23-450 limits assumed): as the sequence (P18627 23-450) above
Chain of human LAG-3, full length, on cells (W339-FlpIn293.hPro1.A3) (human) (P18627 23-525): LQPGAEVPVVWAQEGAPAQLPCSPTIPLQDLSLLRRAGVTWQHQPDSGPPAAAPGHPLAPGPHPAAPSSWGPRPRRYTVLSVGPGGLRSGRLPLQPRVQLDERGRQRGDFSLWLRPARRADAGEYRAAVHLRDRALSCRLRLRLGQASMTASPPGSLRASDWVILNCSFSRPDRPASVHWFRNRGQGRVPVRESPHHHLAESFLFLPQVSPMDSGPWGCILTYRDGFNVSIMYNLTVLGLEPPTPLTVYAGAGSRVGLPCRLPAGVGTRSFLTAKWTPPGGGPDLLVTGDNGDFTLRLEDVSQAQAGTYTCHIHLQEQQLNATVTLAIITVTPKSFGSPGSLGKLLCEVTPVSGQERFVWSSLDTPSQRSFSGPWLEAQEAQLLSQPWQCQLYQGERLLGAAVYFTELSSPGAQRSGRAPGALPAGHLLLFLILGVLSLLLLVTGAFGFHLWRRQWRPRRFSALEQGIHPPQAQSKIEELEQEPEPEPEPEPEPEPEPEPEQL
Chain of cynomolgus PD-L1 ECD with His tag (W315-cynoPro1.ECD.His) (cynomolgus) (G7PSE7 entry or part of it): as the sequence (Q9NZQ7 19-238) above, with A33T, A34S, S62N, R68Q, Q82R, F173L, T185A, T192I, H215L counted along it
Chain of mouse PD-L1 ECD with mouse Fc tag (W315-mPro1.ECD.mFc) (mouse) (Q9EP73 19-239): as the sequence (Q9EP73 19-239 limits assumed) above

For WBP315-BMK8 (Atezolizumab) (antibody), the EC50 in test [1] came out at 0.053 nM; in test [2] it was 0.04 nM; in test [3], 0.035 nM; in test [7], 0.208 nM. Moreover, the Top in [1] came out at 1.98 OD450-OD540; in test [3], 2.45 OD450-OD540; in test [7], 8790 MFI. The Kd in [4] came out at 0.0794 nM; in test [5], 6.29 nM; in [6] it was 2.31 nM.
On to WBP339-BMK1 (25F7) (antibody), for which the Top was determined as 2910 MFI in test [8] and 1180 MFI in [9]. The EC50 in test [9] was 0.237 nM; in [10], 3.79 nM; in test [14], 0.22 nM. In addition, the IC50 was 6.37 nM in test [11] and 1.88 nM in test [12]. The substance also registered a Kd in test [13] of 0.62 nM. The substance further returned an off-rate constant (koff) in test [13] of 0.000315 s⁻¹. The substance also displayed a kon in test [13] of 508000 M⁻¹ s⁻¹.
